Reference: patent US20240092931A1 (JANUX THERAPEUTICS, published 2024)

T1: Human TROP2-Biotin (human, UniProt P09758 27-274, biotinylated (site not stated))
T1 construct: The text calls the captured antigens 'biotinylated peptides'
T1 sequence (looked up): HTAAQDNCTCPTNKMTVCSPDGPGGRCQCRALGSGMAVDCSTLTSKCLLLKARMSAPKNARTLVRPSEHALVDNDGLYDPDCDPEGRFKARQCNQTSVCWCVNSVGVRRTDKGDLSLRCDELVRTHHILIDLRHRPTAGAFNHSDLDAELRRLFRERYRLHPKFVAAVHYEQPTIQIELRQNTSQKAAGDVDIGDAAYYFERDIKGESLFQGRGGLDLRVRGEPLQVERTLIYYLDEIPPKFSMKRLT

B1: TROP2 polypeptide complex Ab-3 (bispecific antibody)
light: DIQLTQSPSSLSASVGDRVSITCKASQDVSIAVAWYQQKPGKAPKLLIYSASYRYTGVPDRFSGSGSGTDFTLTISSLQPEDFAVYYCQQHYITPLTFGAGTKVEIKRTVAAPSVFIFPPSDEQLKSGTASVVCLLNNFYPREAKVQWKVDNALQSGNSQESVTEQDSKDSTYSLSSTLTLSKADYEKHKVYACEVTHQGLSSPVTKSFNRGEC
heavy: QTVVTQEPSLTVSPGGTVTLTCRSSTGAVTTSNYANWVQQKPGQAPRGLIGGTNKRAPGTPARFSGSLLGGKAALTLSGVQPEDEAEYYCALWYSNLWVFGGGTKLTVLGGGGSGGGGSGGGGSEVQLVESGGGLVQPGGSLKLSCAASGFTFNTYAMNWVRQAPGKGLEWVARIRSKYNNYATYYADSVKDRFTISRDDSKNTAYLQMNNLKTEDTAVYYCVRHGNFGNSYVSWFAYWGQGTLVTVSSGGGGSQVQLQQSGSELKKPGASVKVSCKASGYTFTNYGMNWVKQAPGQGLKWMGWINTYTGEPTYTDDFKGRFAFSLDTSVSTAYLQISSLKADDTAVYFCARGGFGSSYWYFDVWGQGSLVTVSSASTKGPSVFPLAPSSKSTSGGTAALGCLVKDYFPEPVTVSWNSGALTSGVHTFPAVLQSSGLYSLSSVVTVPSSSLGTQTYICNVNHKPSNTKVDKKVEPKSC
notes: Anti-CD3 scFv fused to the N-terminus of the anti-TROP2 Fab heavy chain
B2: TROP2 TCE polypeptide complex Ab-1 (bispecific antibody)
light: DIQLTQSPSSLSASVGDRVSITCKASQDVSIAVAWYQQKPGKAPKLLIYSASYRYTGVPDRFSGSGSGTDFTLTISSLQPEDFAVYYCQQHYITPLTFGAGTKVEIKRTVAAPSVFIFPPSDEQLKSGTASVVCLLNNFYPREAKVQWKVDNALQSGNSQESVTEQDSKDSTYSLSSTLTLSKADYEKHKVYACEVTHQGLSSPVTKSFNRGEC
heavy: not shown
notes: as for B1
B3: Ab-2 (bispecific antibody)
light: not shown
heavy: QVQLQQSGSELKKPGASVKVSCKASGYTFTNYGMNWVKQAPGQGLKWMGWINTYTGEPTYTDDFKGRFAFSLDTSVSTAYLQISSLKADDTAVYFCARGGFGSSYWYFDVWGQGSLVTVSSASTKGPSVFPLAPSSKSTSGGTAALGCLVKDYFPEPVTVSWNSGALTSGVHTFPAVLQSSGLYSLSSVVTVPSSSLGTQTYICNVNHKPSNTKVDKKVEPKSC
notes: Anti-CD3 scFv fused to the N-terminus of the anti-TROP2 Fab light chain

Key:
[1] = biological target: T1, Human TROP2-Biotin; assay: BLI (Octet): 10 nM TROP2-biotin loaded on sensor, Ab-3 at 6.25-50 nM, pH 7.4
[2] = biological target: T1, Human TROP2-Biotin; assay: ELISA; 1 nM Trop2-biotin immobilized (captured on neutravidin-coated plate), Ab-3 titrated, bound complex detected with a secondary antibody, OD 450 nm
Text: A secondary antibody was used to detect bound polypeptide complex.

[3] = biological target: T1, Human TROP2-Biotin; assay: BLI (Octet): 10 nM Human TROP2-Biotin loaded on sensor, Ab at 6.25-50 nM, pH 7.4
[4] = biological target: T1, Human TROP2-Biotin; assay: TROP2 ELISA; TROP2-biotin captured on neutravidin-coated plate, antibody titrated, detected with a secondary antibody, OD 450 nm
Text: A secondary antibody was used to detect bound polypeptide complex. A secondary antibody was used to detect bound polypeptide complex.

Row | Binder | Kd [1] [nM] | koff [1] [s⁻¹] | kon [1] [M⁻¹ s⁻¹] | EC50 [2] [nM] | Kd [3] [nM] | EC50 [4] [nM]
1 | B1 | 1.12 | 0.000223 | 199000 | 0.17 |  | 
2 | B2 |  |  |  |  | 0.466 | 0.08
3 | B3 |  |  |  |  | 0.687 | 0.09
